From patent US20130011378A1, “Stable formulations of a hyaluronan-degrading enzyme” (priority 2011, published 2013)

Assay: RP-HPLC: insulin apparent solubility / percent recovery
Conditions: for Solubility of Lispro, % remaining of the original concentration: 7 days at 2-8° C.
Protocol: Apparent solubility was measured as the percent insulin recovery as compared to the initial formulations/conditions.
Samples were prepared by withdrawing 100 μL from each vial at every time point and centrifuging prior to loading. Samples were stored in an autosampler at 4° C. prior to use, and were considered stable for 3 days after preparation. All samples were tested in duplicate.
For insulin, 20 μL was injected for each HPLC run.
To determine the apparent solubility, the peak area of insulin/insulin analog main peak and desamido peak were integrated and combined together to calculate the percentage relative to the standards. […] The data were processed using Design-Expert® 7.0 (StatEase) and the “historical data” feature. Insulin percent purity was expressed as the percent of main insulin versus all insulin species.

## insulin Lispro: insulin analog LysB28, ProB29; SEQ ID NO:103 and 148
0.2% methylparaben + […] m-cresol, pH 6.6, NaCl 50 mM
  Solubility of Lispro, % remaining of the original concentration: 42.0%
0.2% methylparaben + […] m-cresol, pH 6.6, NaCl 80 mM
  Solubility of Lispro, % remaining of the original concentration: 28.2%
0.2% methylparaben + […] m-cresol, pH 6.6, NaCl 110 mM
  Solubility of Lispro, % remaining of the original concentration: 24.1%
0.2% methylparaben + […] m-cresol, pH 6.6, NaCl 140 mM
  Solubility of Lispro, % remaining of the original concentration: 25.9%
0.2% methylparaben + […] m-cresol, pH 6.8, NaCl 50 mM
  Solubility of Lispro, % remaining of the original concentration: 82.3%
0.2% methylparaben + […] m-cresol, pH 6.8, NaCl 80 mM
  Solubility of Lispro, % remaining of the original concentration: 62.6%
0.2% methylparaben + […] m-cresol, pH 6.8, NaCl 110 mM
  Solubility of Lispro, % remaining of the original concentration: 47.8%
0.2% methylparaben + […] m-cresol, pH 6.8, NaCl 140 mM
  Solubility of Lispro, % remaining of the original concentration: 42.0%
0.2% methylparaben + […] m-cresol, pH 7.0, NaCl 50 mM
  Solubility of Lispro, % remaining of the original concentration: 95.3%
0.2% methylparaben + […] m-cresol, pH 7.0, NaCl 80 mM
  Solubility of Lispro, % remaining of the original concentration: 98.1%
0.2% methylparaben + […] m-cresol, pH 7.0, NaCl 110 mM
  Solubility of Lispro, % remaining of the original concentration: 94.1%
0.2% methylparaben + […] m-cresol, pH 7.0, NaCl 140 mM
  Solubility of Lispro, % remaining of the original concentration: 65.6%
0.2% methylparaben + […] m-cresol, pH 7.2, NaCl 50 mM
  Solubility of Lispro, % remaining of the original concentration: 95.7%
0.2% methylparaben + […] m-cresol, pH 7.2, NaCl 80 mM
  Solubility of Lispro, % remaining of the original concentration: 97.9%
0.2% methylparaben + […] m-cresol, pH 7.2, NaCl 110 mM
  Solubility of Lispro, % remaining of the original concentration: 99.6%
0.2% methylparaben + […] m-cresol, pH 7.2, NaCl 140 mM
  Solubility of Lispro, % remaining of the original concentration: 98.0%
0.2% methylparaben + […] m-cresol, pH 7.4, NaCl 50 mM
  Solubility of Lispro, % remaining of the original concentration: 95.6%
0.2% methylparaben + […] m-cresol, pH 7.4, NaCl 80 mM
  Solubility of Lispro, % remaining of the original concentration: 98.2%
0.2% methylparaben + […] m-cresol, pH 7.4, NaCl 110 mM
  Solubility of Lispro, % remaining of the original concentration: 99.9%
0.2% methylparaben + […] m-cresol, pH 7.4, NaCl 140 mM
  Solubility of Lispro, % remaining of the original concentration: 98.5%
0.2% methylparaben + […] m-cresol, pH 7.6, NaCl 50 mM
  Solubility of Lispro, % remaining of the original concentration: 95.7%
0.2% methylparaben + […] m-cresol, pH 7.6, NaCl 80 mM
  Solubility of Lispro, % remaining of the original concentration: 98.3%
0.2% methylparaben + […] m-cresol, pH 7.6, NaCl 110 mM
  Solubility of Lispro, % remaining of the original concentration: 100.2%
0.2% methylparaben + […] m-cresol, pH 7.6, NaCl 140 mM
  Solubility of Lispro, % remaining of the original concentration: 98.8%
0.2% phenol + […] m-cresol, pH 6.6, NaCl 50 mM
  Solubility of Lispro, % remaining of the original concentration: 52.8%
0.2% phenol + […] m-cresol, pH 6.6, NaCl 80 mM
  Solubility of Lispro, % remaining of the original concentration: 32.8%
0.2% phenol + […] m-cresol, pH 6.6, NaCl 110 mM
  Solubility of Lispro, % remaining of the original concentration: 26.0%
0.2% phenol + […] m-cresol, pH 6.8, NaCl 50 mM
  Solubility of Lispro, % remaining of the original concentration: 91.4%
0.2% phenol + […] m-cresol, pH 6.8, NaCl 80 mM
  Solubility of Lispro, % remaining of the original concentration: 65.1%
0.2% phenol + […] m-cresol, pH 6.8, NaCl 110 mM
  Solubility of Lispro, % remaining of the original concentration: 44.9%
0.2% phenol + […] m-cresol, pH 6.8, NaCl 140 mM
  Solubility of Lispro, % remaining of the original concentration: 40.4%
0.2% phenol + […] m-cresol, pH 7.0, NaCl 50 mM
  Solubility of Lispro, % remaining of the original concentration: 97.4%
0.2% phenol + […] m-cresol, pH 7.0, NaCl 80 mM
  Solubility of Lispro, % remaining of the original concentration: 95.5%
0.2% phenol + […] m-cresol, pH 7.0, NaCl 110 mM
  Solubility of Lispro, % remaining of the original concentration: 75.2%
0.2% phenol + […] m-cresol, pH 7.0, NaCl 140 mM
  Solubility of Lispro, % remaining of the original concentration: 65.3%
0.2% phenol + […] m-cresol, pH 7.2, NaCl 50 mM
  Solubility of Lispro, % remaining of the original concentration: 97.6%
0.2% phenol + […] m-cresol, pH 7.2, NaCl 80 mM
  Solubility of Lispro, % remaining of the original concentration: 97.4%
0.2% phenol + […] m-cresol, pH 7.2, NaCl 110 mM
  Solubility of Lispro, % remaining of the original concentration: 95.2%
0.2% phenol + […] m-cresol, pH 7.2, NaCl 140 mM
  Solubility of Lispro, % remaining of the original concentration: 90.8%
0.2% phenol + […] m-cresol, pH 7.4, NaCl 50 mM
  Solubility of Lispro, % remaining of the original concentration: 97.7%
0.2% phenol + […] m-cresol, pH 7.4, NaCl 80 mM
  Solubility of Lispro, % remaining of the original concentration: 97.6%
0.2% phenol + […] m-cresol, pH 7.4, NaCl 110 mM
  Solubility of Lispro, % remaining of the original concentration: 97.0%
0.2% phenol + […] m-cresol, pH 7.4, NaCl 140 mM
  Solubility of Lispro, % remaining of the original concentration: 96.9%
0.2% phenol + […] m-cresol, pH 7.6, NaCl 50 mM
  Solubility of Lispro, % remaining of the original concentration: 97.5%
0.2% phenol + […] m-cresol, pH 7.6, NaCl 80 mM
  Solubility of Lispro, % remaining of the original concentration: 97.7%
0.2% phenol + […] m-cresol, pH 7.6, NaCl 110 mM
  Solubility of Lispro, % remaining of the original concentration: 97.3%
0.2% phenol + […] m-cresol, pH 7.6, NaCl 140 mM
  Solubility of Lispro, % remaining of the original concentration: 96.8%
2-8° C., pH 7.0, 50 mM NaCl
  time insulin Lispro stable (soluble): 5 months
2-8° C., pH 7.0, after 1 week at 80, 110 or 140 mM NaCl
  Solubility: below 65%
2-8° C., pH 7.6, 140 mM NaCl
  time insulin Lispro stable (soluble): 2 weeks
2-8° C., pH 7.6, 50 and 80 mM NaCl, […] m-cresol, […] phenol
  time insulin Lispro stable (soluble): at least 12 months
[…] phenol + […] m-cresol, pH 6.6, NaCl 50 mM
  Solubility of Lispro, % remaining of the original concentration: 60.3%
[…] phenol + […] m-cresol, pH 6.6, NaCl 80 mM
  Solubility of Lispro, % remaining of the original concentration: 43.3%
[…] phenol + […] m-cresol, pH 6.6, NaCl 110 mM
  Solubility of Lispro, % remaining of the original concentration: 24.2%
[…] phenol + […] m-cresol, pH 6.6, NaCl 140 mM
  Solubility of Lispro, % remaining of the original concentration: 27.7%
[…] phenol + […] m-cresol, pH 6.8, NaCl 50 mM
  Solubility of Lispro, % remaining of the original concentration: 93.6%
[…] phenol + […] m-cresol, pH 6.8, NaCl 80 mM
  Solubility of Lispro, % remaining of the original concentration: 60.8%
[…] phenol + […] m-cresol, pH 6.8, NaCl 110 mM
  Solubility of Lispro, % remaining of the original concentration: 44.9%
[…] phenol + […] m-cresol, pH 6.8, NaCl 140 mM
  Solubility of Lispro, % remaining of the original concentration: 35.9%
[…] phenol + […] m-cresol, pH 7.0, NaCl 50 mM
  Solubility of Lispro, % remaining of the original concentration: 98.7%
[…] phenol + […] m-cresol, pH 7.0, NaCl 80 mM
  Solubility of Lispro, % remaining of the original concentration: 96.4%
[…] phenol + […] m-cresol, pH 7.0, NaCl 110 mM
  Solubility of Lispro, % remaining of the original concentration: 77.0%
[…] phenol + […] m-cresol, pH 7.0, NaCl 140 mM
  Solubility of Lispro, % remaining of the original concentration: 61.2%
[…] phenol + […] m-cresol, pH 7.2, NaCl 50 mM
  Solubility of Lispro, % remaining of the original concentration: 100.5%
[…] phenol + […] m-cresol, pH 7.2, NaCl 80 mM
  Solubility of Lispro, % remaining of the original concentration: 99.2%
[…] phenol + […] m-cresol, pH 7.2, NaCl 110 mM
  Solubility of Lispro, % remaining of the original concentration: 97.3%
[…] phenol + […] m-cresol, pH 7.2, NaCl 140 mM
  Solubility of Lispro, % remaining of the original concentration: 93.1%
[…] phenol + […] m-cresol, pH 7.4, NaCl 50 mM
  Solubility of Lispro, % remaining of the original concentration: 100.8%
[…] phenol + […] m-cresol, pH 7.4, NaCl 80 mM
  Solubility of Lispro, % remaining of the original concentration: 101.8%
[…] phenol + […] m-cresol, pH 7.4, NaCl 110 mM
  Solubility of Lispro, % remaining of the original concentration: 100.7%
[…] phenol + […] m-cresol, pH 7.4, NaCl 140 mM
  Solubility of Lispro, % remaining of the original concentration: 98.4%
[…] phenol + […] m-cresol, pH 7.6, NaCl 50 mM
  Solubility of Lispro, % remaining of the original concentration: 100.9%
[…] phenol + […] m-cresol, pH 7.6, NaCl 80 mM
  Solubility of Lispro, % remaining of the original concentration: 102.1%
[…] phenol + […] m-cresol, pH 7.6, NaCl 110 mM
  Solubility of Lispro, % remaining of the original concentration: 101.6%
[…] phenol + […] m-cresol, pH 7.6, NaCl 140 mM
  Solubility of Lispro, % remaining of the original concentration: 101.3%
